This series has as its target FLAG-p53 (UniProt P04637 1-393). As to the kind of experiment: EMSA; BPA (Zn(II) chelator) preincubated; no inhibition; FLAG-p53 12.5 nM; 10 mM Tris-HCl pH 7.4, 2.5 mM DTT, 0.05% NP-40; 10 min preincubation with chelator at 37 °C, then 3 h with probe at 37 °C; electrophoresis at. Particulars: protein: recombinant; tags: FLAG; chain copies: 4; label: FITC; blunt (only the sense strand is printed; it is self-complementary). (A gel shift assay detects complexes by their altered migration in electrophoresis.)

Chain of FLAG-p53 (P04637 whole entry): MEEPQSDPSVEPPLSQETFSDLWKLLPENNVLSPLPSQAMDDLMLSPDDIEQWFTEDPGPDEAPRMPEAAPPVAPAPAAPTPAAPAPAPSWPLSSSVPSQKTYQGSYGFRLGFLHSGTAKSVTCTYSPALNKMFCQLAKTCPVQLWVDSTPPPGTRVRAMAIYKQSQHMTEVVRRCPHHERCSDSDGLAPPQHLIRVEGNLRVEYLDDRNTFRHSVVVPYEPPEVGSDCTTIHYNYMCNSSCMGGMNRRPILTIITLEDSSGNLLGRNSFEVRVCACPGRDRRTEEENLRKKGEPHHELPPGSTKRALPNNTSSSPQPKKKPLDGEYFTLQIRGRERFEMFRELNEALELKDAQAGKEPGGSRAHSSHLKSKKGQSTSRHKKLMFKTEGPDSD

B1: p53 consensus probe (dsDNA)
DNA 1: GGACATGCCCGGGCATGTCC
DNA 2: GGACATGCCCGGGCATGTCC
For the molecule B1, the binding result is listed as “binds”.

The record behind these values is paper PMC3926839, “Evaluation of Zinc (II) chelators for inhibiting p53-mediated apoptosis”.
